Assay results published in patent US20090074747A1 (IRM, published 2009).

B1: NV163-1-Fab' (Fab, V domains shown)
VH: QVQLVQSGSELKKPGASVKVSCKASGYTFTSYGISWVRQAPGQGLEWMGWVNTNTGNPRYAQGFTGRFVFSLDTSVSTAYLQISSLKAEDTAVYYCAREGFIRTVVGAAGRFVYWGQGTLVTVSS
VL: DIQMTQSPSSLSASVGDRVTITCRASQDIHTRLAWYQQKPGKAPKLLIYWASTRGSGVPSRFSGSGSGTDFTLTISSLQPEDFATYYCQQYSAYPTFGQGTKLEIK
B2: NV164-1-Fab' (Fab, V domains shown)
VH: QVQLVQSGSELKKPGASVKVSCKASGYTFTSYGMSWVRQAPGQGLEWMGWVNTNTGNPRYAQGFTGRFVFSLDTSVSTAYLQISSLKAEDTAVYYCAREGFIRTVVGAAGRFVYWGQGTLVTVSS
VL: DIQMTQSPSSLSASVGDRVTITCRASQDIHTRLAWYQQKPGKAPKLLIYWASTLQSGVPSRFSGSGSGTDFTLTISSLQPEDFATYYCQQYSAYPTFGQGTKLEIK
B3: NV164-1-IgG1 (antibody, V domains shown)
VH: QVQLVQSGSELKKPGASVKVSCKASGYTFTSYGMSWVRQAPGQGLEWMGWVNTNTGNPRYAQGFTGRFVFSLDTSVSTAYLQISSLKAEDTAVYYCAREGFIRTVVGAAGRFVYWGQGTLVTVSS
VL: DIQMTQSPSSLSASVGDRVTITCRASQDIHTRLAWYQQKPGKAPKLLIYWASTLQSGVPSRFSGSGSGTDFTLTISSLQPEDFATYYCQQYSAYPTFGQGTKLEIKG
B4: NV115-3B-IgG1 (antibody, V domains shown)
VH: QVQLVQSGAEVKKPGASVKVSCKASGYTFTTYGISWLRQAPGQGLEWMGWVNTNTGNPRYAQGFTGRFVFSLDTSVSTAYLQISSLKAEDTAVYYCAREGFITTVVGAAGRFVYWGQGTLVTVSS
VL: DIQMTQSPSSLSASVGDRVTITCRASQDIHTRLAWYQQKPGQPPKLLIYWASTRASGVPDRFSGTGSGTDFTLTISSLQAEDVAVYYCQQYSTYPTFGQGTKLEIK

Target: T1, human TSLPR on cells (Ba/F3 cells stably overexpressing hTSLPR/hIL7Rα/Stat5-Luc; primary human monocytes) (human, UniProt Q9HC73 23-371)
T1 sequence (looked up): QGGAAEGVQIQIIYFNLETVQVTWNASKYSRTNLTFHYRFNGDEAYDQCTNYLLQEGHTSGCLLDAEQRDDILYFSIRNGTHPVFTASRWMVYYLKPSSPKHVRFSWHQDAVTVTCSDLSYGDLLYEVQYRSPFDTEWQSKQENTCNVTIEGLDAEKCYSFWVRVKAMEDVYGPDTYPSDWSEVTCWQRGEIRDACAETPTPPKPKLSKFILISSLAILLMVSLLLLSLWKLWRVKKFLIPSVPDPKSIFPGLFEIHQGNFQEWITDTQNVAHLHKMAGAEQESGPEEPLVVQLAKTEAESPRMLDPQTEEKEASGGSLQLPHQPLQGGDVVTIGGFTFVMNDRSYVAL
Test: cell-based or functional assay

Row | Binder | IC50, luciferase reporter gene assay (Stat5-Luc) [nM] | IC50, inhibition of TARC secretion from primary human monocytes [nM] | IC50, luciferase reporter gene assay (Stat5-Luc), natural human TSLP [nM] | IC50, luciferase reporter gene assay (Stat5-Luc), recombinant human TSLP [nM]
1 | B1 | 2.7 |  |  | 
2 | B2 | 4 |  |  | 
3 | B3 |  | 0.011 | 0.04 | 0.221
4 | B4 |  | 0.01 | 0.05 | 0.126
